Values quoted from earlier work in patent publication US20220119510A1, “ANTI-POLYETHYLENE GLYCOL (PEG) ANTIBODY MOUSE MODEL FOR RIGOROUS ASSESSMENT OF PEG-BASED THERAPIES: ADJUVANT-FREE INDUCTION MODEL” (Northwestern University, priority 2020, published 2022).

System: rabbits

B1: PEGylated ovalbumin: PEGylated ovalbumin used to immunize rabbits (conjugate, UniProt P01012 2-386, looked up)
Ovalbumin: GSIGAASMEFCFDVFKELKVHHANENIFYCPIAIMSALAMVYLGAKDSTRTQINKVVRFDKLPGFGDSIEAQCGTSVNVHSSLRDILNQITKPNDVYSFSLASRLYAEERYPILPEYLQCVKELYRGGLEPINFQTAADQARELINSWVESQTNGIIRNVLQPSSVDSQTAMVLVNAIVFKGLWEKAFKDEDTQAMPFRVTEQESKPVQMMYQIGLFRVASMASEKMKILELPFASGTMSMLVLLPDEVSGLEQLESIINFEKLTEWTSSNVMEERKIKVYLPRMKMEEKYNLTSVLMAMGITDVFSSSANLSGISSAESLKISQAVHAAHAEINEAGREVVGSAEAGVDAASVSEEFRADHPFLFCIKHIATNAVLFFGRCVSP
modifications: PEGylated
notes: PEGylated ovalbumin used to immunize rabbits
anti-PEG antibodies after immunization: anti-PEG antibodies were first observed
